The RNAGym collection of RNA variant scans (doi:10.1101/gr.219683.116)

B1: mRNA-splicing (parent)
chain: AGUUGCUGCUGGGAGCUCCAGCACAGUGAAAUGGACAGAAGGGCAGAGCAA

Variants of: B1
Test: exon inclusion enrichment index; higher = more inclusion; WT1 exon 5 minigene, HEK293

Row | Variant | exon inclusion enrichment index
1 | AGUUGGUCUCGGGAGCUCCAGCACAGUGAAAUGGACAGAAGGGCAGAGCAA [C6G G8C C9U U10C] | 0.97
2 | AGUUGGUUUUGGGAGCUCCAGCACAGUGAAAUGGACAGAAGGGCAGAGCAA [C6G G8U C9U] | 0.101
3 | AGUUGGAGCUGGGAGCUCCAGCACAGUGAAAUGGACAGAAGGGCAGAGCAA [C6G U7A] | 0.00764
4 | AGUUGGAGAAGGGAGCUCCAGCACAGUGAAAUGGACAGAAGGGCAGAGCAA [C6G U7A C9A U10A] | 0.321
5 | AGUUGGAGACGGGAGCUCCAGCACAGUGAAAUGGACAGAAGGGCAGAGCAA [C6G U7A C9A U10C] | 0.641
6 | AGUUGGAUAUGGGAGCUCCAGCACAGUGAAAUGGACAGAAGGGCAGAGCAA [C6G U7A G8U C9A] | 0.349
7 | AGUUGGCGCUGGGAGCUCCAGCACAGUGAAAUGGACAGAAGGGCAGAGCAA [C6G U7C] | 0.331
8 | AGUUGGCGAAGGGAGCUCCAGCACAGUGAAAUGGACAGAAGGGCAGAGCAA [C6G U7C C9A U10A] | 0.988
9 | AGUUGGCGACGGGAGCUCCAGCACAGUGAAAUGGACAGAAGGGCAGAGCAA [C6G U7C C9A U10C] | 3.21
10 | AGUUGGCACAGGGAGCUCCAGCACAGUGAAAUGGACAGAAGGGCAGAGCAA [C6G U7C G8A U10A] | 0.0835
11 | AGUUGGCACCGGGAGCUCCAGCACAGUGAAAUGGACAGAAGGGCAGAGCAA [C6G U7C G8A U10C] | 2.05
12 | AGUUGGCGCCGGGAGCUCCAGCACAGUGAAAUGGACAGAAGGGCAGAGCAA [C6G U7C U10C] | 3.22
13 | AGUUGGGGCUGGGAGCUCCAGCACAGUGAAAUGGACAGAAGGGCAGAGCAA [C6G U7G] | 0.0143
14 | AGUUGGGGAUGGGAGCUCCAGCACAGUGAAAUGGACAGAAGGGCAGAGCAA [C6G U7G C9A] | 0.0321
15 | AGUUGGGGAAGGGAGCUCCAGCACAGUGAAAUGGACAGAAGGGCAGAGCAA [C6G U7G C9A U10A] | 0.0539
16 | AGUUGGGGACGGGAGCUCCAGCACAGUGAAAUGGACAGAAGGGCAGAGCAA [C6G U7G C9A U10C] | 0.246
17 | AGUUGUUGCUGGGAGCUCCAGCACAGUGAAAUGGACAGAAGGGCAGAGCAA [C6U] | 0.0511
18 | AGUUGUUGAAGGGAGCUCCAGCACAGUGAAAUGGACAGAAGGGCAGAGCAA [C6U C9A U10A] | 0.198
19 | AGUUGUUGACGGGAGCUCCAGCACAGUGAAAUGGACAGAAGGGCAGAGCAA [C6U C9A U10C] | 1.46
20 | AGUUGUUCUCGGGAGCUCCAGCACAGUGAAAUGGACAGAAGGGCAGAGCAA [C6U G8C C9U U10C] | 1.11
21 | AGUUGUUUUUGGGAGCUCCAGCACAGUGAAAUGGACAGAAGGGCAGAGCAA [C6U G8U C9U] | 0.0925
22 | AGUUGUAGCUGGGAGCUCCAGCACAGUGAAAUGGACAGAAGGGCAGAGCAA [C6U U7A] | 0.0485
23 | AGUUGUAGAAGGGAGCUCCAGCACAGUGAAAUGGACAGAAGGGCAGAGCAA [C6U U7A C9A U10A] | 0.0567
24 | AGUUGUAGACGGGAGCUCCAGCACAGUGAAAUGGACAGAAGGGCAGAGCAA [C6U U7A C9A U10C] | 0.322
25 | AGUUGUAUAUGGGAGCUCCAGCACAGUGAAAUGGACAGAAGGGCAGAGCAA [C6U U7A G8U C9A] | 0.17
26 | AGUUGUCGCUGGGAGCUCCAGCACAGUGAAAUGGACAGAAGGGCAGAGCAA [C6U U7C] | 0.178

Row | Variant | exon inclusion enrichment index
27 | AGUUGUCGAAGGGAGCUCCAGCACAGUGAAAUGGACAGAAGGGCAGAGCAA [C6U U7C C9A U10A] | 0.879
28 | AGUUGUCGACGGGAGCUCCAGCACAGUGAAAUGGACAGAAGGGCAGAGCAA [C6U U7C C9A U10C] | 3.37
29 | AGUUGUCACAGGGAGCUCCAGCACAGUGAAAUGGACAGAAGGGCAGAGCAA [C6U U7C G8A U10A] | 0.155
30 | AGUUGUCACCGGGAGCUCCAGCACAGUGAAAUGGACAGAAGGGCAGAGCAA [C6U U7C G8A U10C] | 2.38
31 | AGUUGUCGCCGGGAGCUCCAGCACAGUGAAAUGGACAGAAGGGCAGAGCAA [C6U U7C U10C] | 3.52
32 | AGUUGUGGCUGGGAGCUCCAGCACAGUGAAAUGGACAGAAGGGCAGAGCAA [C6U U7G] | 0.0137
33 | AGUUGUGGAUGGGAGCUCCAGCACAGUGAAAUGGACAGAAGGGCAGAGCAA [C6U U7G C9A] | 0.522
34 | AGUUGUGGAAGGGAGCUCCAGCACAGUGAAAUGGACAGAAGGGCAGAGCAA [C6U U7G C9A U10A] | 0.189
35 | AGUUGUGGACGGGAGCUCCAGCACAGUGAAAUGGACAGAAGGGCAGAGCAA [C6U U7G C9A U10C] | 1.45
36 | AGUUGCAGCUGGGAGCUCCAGCACAGUGAAAUGGACAGAAGGGCAGAGCAA [U7A] | 0.394
37 | AGUUGCAGAAGGGAGCUCCAGCACAGUGAAAUGGACAGAAGGGCAGAGCAA [U7A C9A U10A] | 0.589
38 | AGUUGCAGACGGGAGCUCCAGCACAGUGAAAUGGACAGAAGGGCAGAGCAA [U7A C9A U10C] | 1.94
39 | AGUUGCAACUGGGAGCUCCAGCACAGUGAAAUGGACAGAAGGGCAGAGCAA [U7A G8A] | 1.49
40 | AGUUGCACCUGGGAGCUCCAGCACAGUGAAAUGGACAGAAGGGCAGAGCAA [U7A G8C] | 1.67
41 | AGUUGCAUCUGGGAGCUCCAGCACAGUGAAAUGGACAGAAGGGCAGAGCAA [U7A G8U] | 1.83
42 | AGUUGCAUAUGGGAGCUCCAGCACAGUGAAAUGGACAGAAGGGCAGAGCAA [U7A G8U C9A] | 0.565
43 | AGUUGCCGCUGGGAGCUCCAGCACAGUGAAAUGGACAGAAGGGCAGAGCAA [U7C] | 0.538
44 | AGUUGCCGAAGGGAGCUCCAGCACAGUGAAAUGGACAGAAGGGCAGAGCAA [U7C C9A U10A] | 1.64
45 | AGUUGCCGACGGGAGCUCCAGCACAGUGAAAUGGACAGAAGGGCAGAGCAA [U7C C9A U10C] | 3.46
46 | AGUUGCCACUGGGAGCUCCAGCACAGUGAAAUGGACAGAAGGGCAGAGCAA [U7C G8A] | 1.44
47 | AGUUGCCACAGGGAGCUCCAGCACAGUGAAAUGGACAGAAGGGCAGAGCAA [U7C G8A U10A] | 0.437
48 | AGUUGCCACCGGGAGCUCCAGCACAGUGAAAUGGACAGAAGGGCAGAGCAA [U7C G8A U10C] | 2.58
49 | AGUUGCCCCUGGGAGCUCCAGCACAGUGAAAUGGACAGAAGGGCAGAGCAA [U7C G8C] | 1.02
50 | AGUUGCCUCUGGGAGCUCCAGCACAGUGAAAUGGACAGAAGGGCAGAGCAA [U7C G8U] | 1.05
51 | AGUUGCCGCCGGGAGCUCCAGCACAGUGAAAUGGACAGAAGGGCAGAGCAA [U7C U10C] | 2.76
